Experimental findings from publication PMC7086702 are described below.

The target in the test is Groundnut bud necrosis virus nucleocapsid (N) protein, full-length, hexa-histidine-tagged (Groundnut bud necrosis virus, strain GBNV-To(K)). Description: SEC. In general terms: Size exclusion chromatography separates by hydrodynamic size, large species first.

As a reminder, the stoichiometry N is a count of units in the complex or per binding partner. As to “Groundnut bud necrosis virus nucleocapsid (N) protein, full-length, hexa-histidine-tagged (natural protein)”, the stoichiometry N was found to be 4.
